Data on nine substances can be found in patent US20200024330A1.

Common to all, as to assay: cell-based or functional assay
Test [1] concerns the target HIV-1 Env of isolate MGRM-C-002 (pseudovirus) (HIV-1 isolate MGRM-C-002, subtype C).
The target of test [2] is HIV-1 Env of isolate MGRM-F1-022 (HIV-1).
For test [3], the target named is HIV-1 Env of isolate MGRM-F1-010 (subtype F) (HIV-1).
The target in test [4] is HIV-1 JR-CSF Env R480A (HIV-1 (isolate JR-CSF)) (UniProt P20871).
For test [5], the target named is HIV-1 6535.3 Env (pseudovirus) (HIV-1).
Test [6] has as its target HIV-1 Env of isolate MG RM-D-029 (subtype D) (HIV-1).
Test [7] has as its target HIV-1 Env of isolate MGRM-G-028 (HIV-1).
The target of test [8] is HIV-1 JR-CSF Env N156A (HIV-1 (isolate JR-CSF)) (UniProt P20871).
Test [9] has as its target HIV-1 Env of isolate MG RM-AG-011 (HIV-1).
Test [10] deals with HIV-1 JR-CSF Env P470A (HIV-1 (isolate JR-CSF)) (UniProt P20871).
In test [11] the target is HIV-1 Env of isolate MG RM-D-016 (subtype D) (HIV-1).
The target in test [12] is HIV-1 JR-CSF Env D167A (HIV-1 (isolate JR-CSF)) (UniProt P20871).
Test [13] has as its target HIV-1 JR-CSF Env N160K (HIV-1 (isolate JR-CSF)) (UniProt P20871).
The target of test [14] is HIV-1 Env of isolate MG RM-D-020 (subtype D) (HIV-1).
Test [15] addresses HIV-1 JR-CSF Env I165A (HIV-1 (isolate JR-CSF)) (UniProt P20871).
Test [16] deals with HIV-1 Env of isolate MGRM-A-012 (clade A), on pseudovirus (HIV-1).
In test [17] the target is HIV-1 Env of isolate MGRM-D-028 (subtype D), on pseudovirus (HIV-1).
For test [18], the target named is HIV-1 Env of isolate SF162 (HIV-1) (UniProt P19550).
The target of test [19] is HIV-1 Env of isolate MGRM-C-014 (HIV-1).
The target of test [20] is HIV-1 Env of isolate MGRM-D-003 (HIV-1).
The target in test [21] is HIV-1 Env of isolate MGRM-AG-009 (CRF_AG), on pseudovirus (HIV-1).
The target in test [22] is HIV-1 Env of isolate 97ZA012 (HIV-1).
Test [23] has as its target HIV-1 Env of isolate MGRM-C-015 (HIV-1).
In test [24] the target is HIV-1 Env of isolate MGRM-F1-010 (subtype F), on pseudovirus (HIV-1).
Test [25] concerns the target HIV-1 Env of isolate THR0.18 (HIV-1).
Test [26] concerns the target HIV-1 Env of isolate MGRM-AG-002 (CRF_AG), on pseudovirus (HIV-1).
Test [27] addresses HIV-1 Env of isolate MGRM-D-020 (HIV-1).
Test [28] concerns the target HIV-1 Env of isolate MGRM-C-006 (HIV-1).

Broadly, the IC50 is the concentration at which inhibition is half-maximal. Low readings indicate inhibition by little substance, high ones a need for much substance.

Where only a bound is given, the exact number is not on record here.

Chain of 5329_C19 (PGT-136) (antibody) (VH): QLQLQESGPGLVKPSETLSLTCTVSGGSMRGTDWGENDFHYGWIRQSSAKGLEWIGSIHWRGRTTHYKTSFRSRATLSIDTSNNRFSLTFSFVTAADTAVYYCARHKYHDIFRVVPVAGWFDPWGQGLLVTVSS
Chain of 5329_C19 (PGT-136) (antibody) (VL): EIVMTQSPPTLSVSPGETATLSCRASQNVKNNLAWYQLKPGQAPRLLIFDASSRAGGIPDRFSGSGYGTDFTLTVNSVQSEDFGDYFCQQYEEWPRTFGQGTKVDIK
Chain of 5345_I01 (PGT-137) (antibody) (VH): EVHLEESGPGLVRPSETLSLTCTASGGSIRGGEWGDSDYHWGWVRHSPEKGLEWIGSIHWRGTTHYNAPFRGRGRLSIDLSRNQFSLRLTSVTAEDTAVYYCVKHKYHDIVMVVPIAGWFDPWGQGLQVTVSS
Chain of 5345_I01 (PGT-137) (antibody) (VL): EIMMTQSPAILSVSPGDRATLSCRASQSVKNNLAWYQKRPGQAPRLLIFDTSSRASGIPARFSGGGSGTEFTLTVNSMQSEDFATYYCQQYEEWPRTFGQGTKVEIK

In the case of 4858_P08 (PGT-123) (antibody), the IC50 (µg/mL) neutralization in [1] stood at 0.01 µg/mL. Moreover, the IC50 in test [2] was 0.075 µg/mL. Further, the IC50 (µg/mL), pseudovirus neutralization in test [3] is 0.016 µg/mL; in test [6] it was greater than 50 µg/mL; in [11], greater than 50 µg/mL; in [14] it was 0.018 µg/mL. Also, the Fold IC50 increase relative to wild-type in test [4] worked out at 1.7 fold; in [8] it was 6.2 fold; in [10] it was 0.8 fold; in test [12], 1.2 fold; in test [13], 1 fold; in test [15], 2.2 fold. Besides, the IC50, pseudovirus neutralization in [5] came out at 0.004 µg/mL; in [7] it was 0.008 µg/mL. Besides, the neutralization IC50 in [9] is greater than 50 µg/mL.

Turning to 5114_A19 (PGT-128) (antibody), the values for the IC50, single-round pseudovirus neutralization in [16], in [21] and in test [26] were 0.025 µg/mL, 0.021 µg/mL and 4.99 µg/mL, respectively. Also, the IC50, pseudovirus neutralization was greater than 50 µg/mL in test [17], 0.008 µg/mL in test [7] and 16.7 µg/mL in [24]. For the same substance, the IC50 in test [18] is 0.007 µg/mL; in [19] it was greater than 50 µg/mL; in test [20], 0.019 µg/mL; in [22], 0.019 µg/mL; in test [23] it was 0.196 µg/mL; in test [25] it was greater than 50 µg/mL. The IC50 was 0.011 µg/mL in [27] and 0.014 µg/mL in test [28]. The Fold IC50 increase relative to wild-type stood at 0.1 fold in test [4]; 0.4 fold in [8]; 0.6 fold in [10]; 0.3 fold in test [12]; 1 fold in test [13]; 2.1 fold in [15].

In the case of 5123_A06 (PGT-125) (antibody), the IC50 (µg/mL) neutralization in test [1] is 0.008 µg/mL. Also, in test [2], the half-inhibitory concentration (IC50) was greater than 50 µg/mL. The IC50 (µg/mL), pseudovirus neutralization was greater than 50 µg/mL in test [3], greater than 50 µg/mL in [6], 0.12 µg/mL in [11] and greater than 50 µg/mL in test [14]. The Fold IC50 increase relative to wild-type in test [4] was 2.1 fold; in [8], 3.6 fold; in test [10], 1.6 fold; in test [12], 1.7 fold; in [13], 0.5 fold; in test [15] it was 2.3 fold. The values for the IC50, pseudovirus neutralization in test [5] and in test [7] were 0.01 µg/mL and 0.012 µg/mL, respectively. The substance also displayed a neutralization IC50 in [9] greater than 50 µg/mL.

As to 5136_H01 (PGT-131) (antibody), the IC50, single-round pseudovirus neutralization in test [16], in test [21] and in test [26] was greater than 50 µg/mL in each case. Also, the IC50, pseudovirus neutralization in test [17] was greater than 50 µg/mL; in [7] it was 0.466 µg/mL; in test [24], greater than 50 µg/mL. For the same substance, the IC50 in test [18] was 0.025 µg/mL; in test [19], greater than 50 µg/mL; in test [20] it was 19.6 µg/mL; in [22] it was 1.81 µg/mL; in test [23], 1.01 µg/mL; in [25] it was greater than 50 µg/mL. Besides, the IC50 in test [27] is greater than 50 µg/mL; in test [28] it was 0.611 µg/mL. In addition, the Fold IC50 increase relative to wild-type in [4] was determined as 1.5 fold; in [8], 1 fold; in test [10], 1 fold; in [12], 1.2 fold; in [13], 0.4 fold; in [15], 2.4 fold.

Regarding 5141_B17 (PGT-126) (antibody), the IC50 (µg/mL) neutralization in test [1] was 0.011 µg/mL. The substance also registered an IC50 in test [2] greater than 50 µg/mL. Also, the IC50 (µg/mL), pseudovirus neutralization is greater than 50 µg/mL in [3], greater than 50 µg/mL in test [6], greater than 50 µg/mL in test [11] and 0.023 µg/mL in [14]. In addition, the Fold IC50 increase relative to wild-type in test [4] was 1.9 fold; in [8], 1.8 fold; in test [10], 2.7 fold; in test [12], 1.6 fold; in test [13], 0.5 fold; in test [15], 2.5 fold. Also, the IC50, pseudovirus neutralization turned out to be 0.022 µg/mL in [5] and 0.012 µg/mL in [7]. In addition, the neutralization IC50 in [9] amounted to 24.5 µg/mL.

With 5145_B14 (PGT-127) (antibody), the IC50 (µg/mL) neutralization in [1] worked out at 0.057 µg/mL. In test [2], this substance came in with an IC50 greater than 50 µg/mL. In addition, the IC50 (µg/mL), pseudovirus neutralization is greater than 50 µg/mL in test [3], greater than 50 µg/mL in [6], greater than 50 µg/mL in [11] and 0.015 µg/mL in test [14]. For the same substance, the Fold IC50 increase relative to wild-type in [4] came out at 0.2 fold; in test [8], 1.6 fold; in test [10], 1 fold; in test [12], 1.6 fold; in [13], 0.8 fold; in [15], 1.7 fold. Moreover, the IC50, pseudovirus neutralization in test [5] amounted to 0.02 µg/mL; in [7], 0.032 µg/mL. In [9], this substance returned a neutralization IC50 greater than 50 µg/mL.

Take 5147_N06 (PGT-130) (antibody): the IC50, single-round pseudovirus neutralization was greater than 50 µg/mL in test [16], 9.46 µg/mL in [21] and greater than 50 µg/mL in test [26]. Besides, the IC50, pseudovirus neutralization is 0.825 µg/mL in [17], 0.074 µg/mL in test [7] and greater than 50 µg/mL in test [24]. The IC50 is 0.007 µg/mL in test [18]; greater than 50 µg/mL in test [19]; 0.651 µg/mL in test [20]; 1.32 µg/mL in [22]; 0.344 µg/mL in test [23]; greater than 50 µg/mL in test [25]. For the same substance, the IC50 in [27] was 24.7 µg/mL; in [28], 0.095 µg/mL. In addition, the Fold IC50 increase relative to wild-type in test [4] amounted to 1 fold; in [8], 1.5 fold; in test [10], 2.4 fold; in test [12] it was 1.2 fold; in [13] it was 3.4 fold; in test [15], 3.2 fold.

Regarding 5329_C19 (PGT-136) (antibody), the IC50, single-round pseudovirus neutralization in [16], in test [21] and in test [26] was greater than 50 µg/mL throughout. The IC50, pseudovirus neutralization in [17], in test [7] and in test [24] was greater than 50 µg/mL in each case. Besides, the IC50 in [18] is 0.482 µg/mL; in [19], greater than 50 µg/mL; in [20], greater than 50 µg/mL; in test [22] it was greater than 50 µg/mL; in test [23], 11.1 µg/mL; in test [25], greater than 50 µg/mL. Moreover, the IC50 in test [27] and in test [28] was greater than 50 µg/mL each time.

For the substance 5345_I01 (PGT-137) (antibody), the IC50, single-round pseudovirus neutralization in [16], in test [21] and in test [26] was greater than 50 µg/mL throughout. Moreover, the IC50, pseudovirus neutralization in test [17], in test [7] and in [24] was greater than 50 µg/mL each time. The IC50 was 3.41 µg/mL in test [18]; greater than 50 µg/mL in test [19]; greater than 50 µg/mL in test [20]; greater than 50 µg/mL in test [22]; 1.98 µg/mL in test [23]; greater than 50 µg/mL in [25]. In addition, the IC50 in test [27] and in [28] was greater than 50 µg/mL each time.
